Like-named read-outs stand apart in the source and are kept apart here.
What was measured:
[1] = target: SARS-CoV-2 mouse/rabbit Fc-tagged RBD (SARS-CoV-2, UniProt P0DTC2 319-541)
[2] = target: T1, SARS-CoV-2 Wuhan-Hu-1 RBD (SARS-CoV-2 Wuhan-Hu-1, UniProt P0DTC2 328-531); experiment: RBD binding affinity (SPR, see Example 5)
T1 construct: range 328-531

SARS-CoV S glycoprotein [3] = target: T2, SARS-CoV S glycoprotein (SARS-CoV, UniProt P59594 14-1255); experiment: cell-based or functional assay
SARS-CoV S glycoprotein [4] = target: T2, SARS-CoV S glycoprotein; experiment: cell-based or functional assay; remark: listed apart in the source
SARS-CoV S glycoprotein [5] = target: T2, SARS-CoV S glycoprotein; experiment: cell-based or functional assay; remark: listed apart in the source
[6] = target: SARS-CoV-2 CH.1.1 S glycoprotein (SARS-CoV-2 CH.1.1); experiment: cell-based or functional assay
[7] = target: T1, SARS-CoV-2 Wuhan-Hu-1 RBD; experiment: BLI, Fab on immobilized Wuhan-Hu-1 RBD (FIG. 25)

Row | Binder | IC50 (read off the curve) [1] [µg/mL] | Kd [2] [nM] | IC50 (SARS-CoV S glycoprotein [5]) [ng·mL] | IC50 [6] [µg/mL] | also measured
1 | S3I2 (antibody, V domains shown) VH: EVQLVETGGGLIQPGGSLTLSCAASGLVVSYNYMTWVRQAPGKGLEWLSVIYAGGSTFYADSVKGRFTVSRDNSNNTLYLQMNNLRAEDTAVYFCARWGQVRFTSEEAYYKYGLDVWGQGTTVTVSS VL: DIQLTQSPSFLSASVGDRVTITCRASQGISNYLAWYQQRPGKAPKLLIFTASTLQSGVSSRFSGSGSGTEFTLTISSLQPEDLATYYCQQLNSNLQGTFGQGTRVEIK | ~0.03 | – | – | – | –
2 | S3L17 (antibody, V domains shown) VH: EVQLVESGGGLVQPGGSLRLSCAASEIIVSSNYMNWVRQAPGKGLEWVSVIYAGGSTFYADSVRGRFTISRDNSKNTLYLQMNSLRPDDTAIYYCARDLGPWGMDVWGQGTTVTVSS VL: DIQMTQSPSSLSASVGDRVAITCRASHGINNDLAWYQQKPGKVPKLLIYAASTLQSGVPSRFSGSGSGTDFTLTISSLQPEDVATYYCQHYSSDPRFTFGPGTKVDIK | ~0.02 | 0.07 | – | – | –
3 | S2V29-v37.2 (antibody, V domains shown) VH: EVQLVESGGSVVQPGRALRLSCAASGITFSSFGMYWVRQAPGKGLEWLGYIAYDGSDTYYADSVKGRFTISRDNSKNTLYLQMNSLRIEDTAVYYCAKDYYPLLSYYYGLDVWGQGTTVTVSS VL: QSVLTQPRSVSGSPGQSVTISCTGTSSDVGAYNYVSWYQQHPGKAPKFMIYDVDQRPSGVPDRFSGSKSGNTASLIISGLQAEDEADYYCSSYAGSYIWVFGGGTQLTVL | – | 0.16 | 6 | 0.0089 | FC IC50 par/IC50 Var (SARS-CoV S glycoprotein [3]): 21.7 fold; IC50 (SARS-CoV S glycoprotein [3]): 0.0077 µg/mL; fold improvement in neutralization (SARS-CoV S glycoprotein [4]): 100 fold; FC vs v1.2 (SARS-CoV S glycoprotein [5]): 116 fold; FC vs S2V29-v1.2 [6]: 1.3 fold
4 | S2V29-v1.2 (antibody, V domains shown) VH: EVQLVESGGSVVQPGRALRLSCAASGITFSSFGMYWVRQAPGKGLEWLGVIAYDGSNTYYADSVKGRFTISRDNSKNTLYLQMNSLRIEDTAVYYCAKDYYPLLSYYYGLDVWGQGTTVTVSS VL: QSVLTQPRSVSGSPGQSVTISCTGTSSDVGAYNYVSWYQQHPGKAPKFMIYDVDQRPSGVPDRFSGSKSGNTASLIISGLQAEDEADYYCSSYAGSYIWVFGGGTQLTVL | – | < 0.02 | 689 | 0.0112 | –
5 | S2V29-v1.1 (antibody, V domains shown) VH: EVQLVESGGSVVQPGRALRLSCAASGITFSSFGMYWVRQAPGKGLEWLGVIAYDGSNTYYADSVKGRFTISRDNSKNTLYLQMNSLRIEDTAVYYCAKDYYPLLSYYYGLDVWGQGTTVTVSS VL: QSVLTQPRSVSGSPGQSVTISCTGTSSDVGAYNYVSWYQQHPGKAPKFMIYDVDQRPSGVPDRFSGSKSGNTASLIISGLQAEDEADYYCCSYAGSYIWVFGGGTQLTVL | ~0.02 | – | – | – | –
6 | S2K146 Fab (Fab, V domains shown) VH: QVQLVESGGVVVQPGGSLRLSCAASGFTFHDHTMHWVRQAPGKGLEWVSLITWNGGTIHYSDSVKGRFTISRDNSKNSLYLQMNSLRTEDTALYYCAKDLGRGGWYLPSDAWGQGTLVTVSS VL: not shown | – | – | – | – | binding result [7]: binds

From patent US20260274928A1 (VIR BIOTECHNOLOGY, published 2026)
